The values that follow come from paper PMC4441847 (The Biochemical journal, 2015).

The target of the experiment is Recombinant FEN-1 (pET-FEN-1) (human, UniProt P39748 1-380). Kind of experiment: pull-down.
Sequence of Recombinant FEN-1 (pET-FEN-1) (P39748 whole entry): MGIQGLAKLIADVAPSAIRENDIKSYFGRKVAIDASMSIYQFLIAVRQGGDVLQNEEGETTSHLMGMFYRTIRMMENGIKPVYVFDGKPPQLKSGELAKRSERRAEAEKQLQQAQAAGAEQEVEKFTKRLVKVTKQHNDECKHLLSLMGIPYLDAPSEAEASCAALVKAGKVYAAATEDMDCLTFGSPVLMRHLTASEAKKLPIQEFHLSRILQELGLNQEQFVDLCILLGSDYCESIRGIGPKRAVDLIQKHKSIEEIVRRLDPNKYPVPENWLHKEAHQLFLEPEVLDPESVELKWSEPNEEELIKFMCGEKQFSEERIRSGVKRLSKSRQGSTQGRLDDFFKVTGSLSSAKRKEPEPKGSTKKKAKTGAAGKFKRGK

B1: GST-RECQ1 C-terminal domain (residues 592-649) (domain or fragment, human, UniProt P46063 592-649, looked up)
chain: KSTQNSFRAESSQTCHSEQGDKKMEEKNSGNFQKKAANMLQQSGSKNTGAKKRKIDDA
For the molecule B1, the binding result is “binds”.

B2: GST-RECQ1 RQC domain (residues 418-592) (domain or fragment, human, UniProt P46063 418-592, looked up)
chain: YGFGDIFRISSMVVMENVGQQKLYEMVSYCQNISKCRRVLMAQHFDEVWNSEACNKMCDNCCKDSAFERKNITEYCRDLIKILKQAEELNEKLTPLKLIDSWMGKGAAKLRVAGVVAPTLPREDLEKIIAHFLIQQYLKEDYSFTAYATISYLKIGPKANLLNNEAHAITMQVTK
As to B2, the binding result is “binds”.
